Measured values as given in paper PMC3103402.

B1: BDNF wtRTS (ssRNA)
RNA: AUGGACCCAAUGAGAACUAGU
B2: CaMKIIα wtRTS (ssRNA)
RNA: AACGCCAGUGAGCCAGGAACU
B3: Arc wtRTS (ssRNA)
RNA: GCUGAGGAGGAGGAGAUCAUU

These binders were tested against CBF-A (hnRNP A/B), p37 isoform (UniProt Q99020 1-285) (assay: EMSA).
Chain of CBF-A (hnRNP A/B), p37 isoform (Q99020 whole entry, canonical isoform): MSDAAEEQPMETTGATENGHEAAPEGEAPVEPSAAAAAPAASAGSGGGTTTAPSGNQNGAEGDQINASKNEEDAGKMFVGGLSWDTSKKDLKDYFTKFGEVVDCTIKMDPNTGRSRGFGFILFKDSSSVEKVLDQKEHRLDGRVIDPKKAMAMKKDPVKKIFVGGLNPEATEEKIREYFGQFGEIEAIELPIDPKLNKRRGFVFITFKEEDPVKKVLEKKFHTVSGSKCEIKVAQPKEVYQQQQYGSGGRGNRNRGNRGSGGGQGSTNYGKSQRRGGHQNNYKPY

Binding result, binds:
B1
B2
B3
